Our source for the stoichiometry N (per diffusing complex) and stoichiometry N (subunits/complex) values is article PMC6039492.

Assay [1] has as its target GABAB receptor (heterodimer of GABAB1 and GABAB2), untagged and SNAP-tagged subunits in three combinations (rat) (UniProt Q9Z0U4). Kind of assay: two-photon scanning number and brightness (sN&B) fluctuation microscopy; live cultured rat hippocampal neurons, GABAB1 and/or GABAB2 SNAP-tagged and labelled with Alexa488, corrected for the theoretical number of fluorophores per heterodimer; across expression levels.

Assay [2] has as its target mGlu2 mutated to be locked in the inactive conformation (HA-ST-mGlu2-515NGlyc-L698C-L729C-F756D), cross-linked with CuP (rat) (UniProt P31421). The assay is described as follows: two-photon scanning number and brightness (sN&B) fluctuation microscopy; live cultured rat hippocampal neurons, SNAP-tag labelled with Alexa488, incubated with 150 μM CuP for the last 10 min of labelling, imaged in the absence of ligand; 90-600 subunits/Veff; apparent stoichiometry (lower with CuP).

Sequence of GABAB receptor (heterodimer of GABAB1 and GABAB2), untagged and SNAP-tagged subunits in three combinations (Q9Z0U4 20-960): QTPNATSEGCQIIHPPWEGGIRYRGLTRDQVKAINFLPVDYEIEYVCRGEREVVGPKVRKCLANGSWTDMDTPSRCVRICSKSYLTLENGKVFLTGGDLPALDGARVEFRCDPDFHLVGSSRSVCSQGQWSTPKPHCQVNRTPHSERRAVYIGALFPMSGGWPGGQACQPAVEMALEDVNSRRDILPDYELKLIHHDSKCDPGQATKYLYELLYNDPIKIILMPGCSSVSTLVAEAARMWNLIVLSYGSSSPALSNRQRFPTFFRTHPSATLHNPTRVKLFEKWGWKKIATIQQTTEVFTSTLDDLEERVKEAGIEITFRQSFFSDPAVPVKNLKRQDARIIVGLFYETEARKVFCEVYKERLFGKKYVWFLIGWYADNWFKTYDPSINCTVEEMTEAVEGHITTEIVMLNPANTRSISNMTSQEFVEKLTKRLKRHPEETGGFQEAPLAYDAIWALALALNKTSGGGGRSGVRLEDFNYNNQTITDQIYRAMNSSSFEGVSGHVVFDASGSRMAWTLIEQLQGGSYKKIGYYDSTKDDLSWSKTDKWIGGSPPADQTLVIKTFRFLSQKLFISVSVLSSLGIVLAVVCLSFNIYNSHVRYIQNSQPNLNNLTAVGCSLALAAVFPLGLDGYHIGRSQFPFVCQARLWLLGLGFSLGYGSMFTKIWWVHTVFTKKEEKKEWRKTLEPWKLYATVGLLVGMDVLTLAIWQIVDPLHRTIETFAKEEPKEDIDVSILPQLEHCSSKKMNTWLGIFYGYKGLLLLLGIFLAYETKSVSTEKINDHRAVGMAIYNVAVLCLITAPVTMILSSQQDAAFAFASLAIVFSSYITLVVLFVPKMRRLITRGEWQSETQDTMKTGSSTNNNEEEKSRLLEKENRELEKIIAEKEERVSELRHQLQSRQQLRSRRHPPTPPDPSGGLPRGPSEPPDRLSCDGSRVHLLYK
Sequence of GABAB receptor (heterodimer of GABAB1 and GABAB2), untagged and SNAP-tagged subunits in three combinations (O88871 41-940): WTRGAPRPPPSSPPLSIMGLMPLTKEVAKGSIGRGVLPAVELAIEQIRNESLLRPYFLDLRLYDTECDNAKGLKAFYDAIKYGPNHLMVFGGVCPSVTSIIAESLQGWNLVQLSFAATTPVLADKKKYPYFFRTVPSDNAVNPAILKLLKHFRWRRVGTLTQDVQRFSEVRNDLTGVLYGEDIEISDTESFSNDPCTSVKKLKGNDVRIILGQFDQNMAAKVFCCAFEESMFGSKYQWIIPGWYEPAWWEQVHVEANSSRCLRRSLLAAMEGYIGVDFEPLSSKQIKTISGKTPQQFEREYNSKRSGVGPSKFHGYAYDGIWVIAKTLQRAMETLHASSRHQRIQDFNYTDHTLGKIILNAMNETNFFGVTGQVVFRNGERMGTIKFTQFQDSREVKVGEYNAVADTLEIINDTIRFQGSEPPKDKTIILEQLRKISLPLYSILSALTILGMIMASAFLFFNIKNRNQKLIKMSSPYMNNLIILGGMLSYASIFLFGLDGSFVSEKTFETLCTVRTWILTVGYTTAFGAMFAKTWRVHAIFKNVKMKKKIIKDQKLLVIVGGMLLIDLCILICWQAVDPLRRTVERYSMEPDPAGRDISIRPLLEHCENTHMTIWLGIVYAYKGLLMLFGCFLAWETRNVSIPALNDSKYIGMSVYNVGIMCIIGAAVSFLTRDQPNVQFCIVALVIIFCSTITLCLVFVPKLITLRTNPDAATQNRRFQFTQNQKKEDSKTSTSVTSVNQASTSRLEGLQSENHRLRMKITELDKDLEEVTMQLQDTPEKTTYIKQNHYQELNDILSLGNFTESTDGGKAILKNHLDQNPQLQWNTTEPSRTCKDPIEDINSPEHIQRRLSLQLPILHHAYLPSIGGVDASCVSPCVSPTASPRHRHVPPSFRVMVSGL

With “GABAB receptor (heterodimer of GABAB1 and GABAB2), untagged and SNAP-tagged subunits in three combinations (from UniProt Q9Z0U4 20-960; O88871 41-940) (complex)”, the stoichiometry N (per diffusing complex) in assay [1] lay within 2 to 8.
As for “mGlu2 mutated to be locked in the inactive conformation (HA-ST-mGlu2-515NGlyc-L698C-L729C-F756D), cross-linked with CuP (from UniProt P31421 19-872) (receptor)”, in assay [2], the stoichiometry N (subunits/complex) was 2.3.
